Key:
[1] = molecular target: T1, ALK extracellular domain expressed on the cell surface of 293T cells (293T-ALK) (Homo sapiens, UniProt Q9UM73); assay: Flow cytometry binding of VHs to 293T-ALK cells; parameters: expressed in transfected cells; host or cells: 293T; details: VH at 1 μM, anti-FLAG-PE detection
Method: (§1) FIG. 1A provides a schematic of ALK. MAM1, LDLa, MAM2, G-rich, G-T domains and full-length ALK extracellular domain (ALK-Ecto) were expressed separately for phage panning. Briefly, 293T and 293T-ALK cells were stained with different VH antibodies at a concentration of 1 μM in […] PBS for 30 minutes on ice. The cells were washed with 1 mL PBS three times and incubated with anti-FLAG-PE antibody (1:200, BioLegend) for 30 minutes on ice. The FLAG tag comprises the sequence: DYKDDDDK (SEQ ID NO: 9). The stained cells were then washed with 1 mL PBS three times. Antibody binding was detected on a BD™ LSR II (BD Biosciences, San Jose, CA). Fluorescence activated cell sorting (FACS) data analysis was performed using FlowJo_V10_CL.
(§2) FIGS. 1B and 1C show the flow cytometry results with various VHs binding to ALK extracellular domain expressed on the cell surface of 293T cells (293T-ALK). VH9 and VH20 were identified with the G-rich domain antigen while VH5 and VH78 were identified with the G-T domain antigen.

[2] = molecular target: T2, ALK-Fc, a fusion of the ALK extracellular domain and human IgG1 Fc (human, UniProt Q9UM73 19-1038); assay: ELISA, ALK-Fc coated, anti-Flag-HRP detection
T2 construct: not shown: human IgG1 Fc
Method: The VHs were further characterized. First, the binding affinities of the VHs were studied in an ELISA assay using a fusion protein comprising the ALK extracellular domain fused to the human IgG1 Fc (ALK-Fc). ELISA plates (Corning 3690; Tewksbury, MA) were coated with 50 μl antigen (5 μg/ml diluted with 1×PBS) at 4° C. overnight. The next day, blocking was performed with 150 μL 5% milk-PBS (Bio-RAD; Hercules, CA) at room temperature for two hours. Then, the plates were washed with 0.05% PBST three times. 3-fold serial diluted VH antibodies (in 5% PBS-Milk) was added into each well and incubated at room temperature for 1 hour and then washed with PBST 4 times. Next, 50 μL anti-Flag-HRP (1:1000 dilution in 5% PBS-Milk, Thermo; Waltham, MA) was added into each well and incubated at room temperature for 1 hour and then washed 5 times with PBST. 50 μL 3,3′,5,5′-tetramethylbenzidine (TMB) substrate (Sigma; St. Louis, MO) was added into each well and color was allowed to develop for 1-2 minutes before stopping with 50 μL H₂SO₄ (1M, Sigma). Plates were read at 450 nm absorbance. The ELISA results were analyzed using GraphPad Prism 9.0.2.

293T cells [3] = assay: Flow cytometry binding of VHs to 293T cells (non-specific binding); details: VH at 1 μM, anti-FLAG-PE detection
Method: as §1, §2

293T-ALK cells [4] = assay: Anti-ALK CAR-T cell cytotoxicity (LDH release); assay type: cell-based; details: CAR-T cells comprising the VH, effector:target 1.25:1 to 20:1, 48 hours
Method: The cytotoxicity of anti-ALK CAR-T cells against 293T and 293T-ALK cells was also studied. Anti-ALK CAR-T cells (effector cells) were incubated with 293T and 293T-ALK cells at the effector: target ratios of 1.25:1, 2.5:1, 5:1, 10:1 and 20:1 for 48 hours in a 96-well cell culture plate (Corning). The co-cultures of CAR-T cells with 293T cells were used as negative controls. Cytotoxicity was determined by detecting specific lactate dehydrogenase (LDH) released into the medium from the target cells with cytotoxicity LDH detection kit (Promega) according to the manufacturer's instructions. Percent cytotoxicity was calculated with the following formula: Cytotoxicity (%)=(Experimental lysis−Effector spontaneous lysis−Target spontaneous lysis)/(Target maximum lysis−Target spontaneous lysis)×100%. Anti-ALK CAR-T cells were co-cultured with 293T cells as negative controls.

[5] = molecular target: T1, ALK extracellular domain expressed on the cell surface of 293T cells (293T-ALK); assay: cell-based or functional assay
[6] = molecular target: cell surface ALK on neuroblastoma cells (IMR32, SY5Y-D3, SY5Y) (human) (UniProt Q9UM73); assay: cell-based or functional assay
[7] = molecular target: T3, cell surface ALK on IMR32 cells (Homo sapiens, UniProt Q9UM73); assay: FACS binding to IMR32 cells; details: 1 μM, positive cell line
T3 construct: endogenous in cells; host or cells: IMR32
Method: (§3) The ability of VH20 bind ALK expressing cells was also studied by FACS. SK-N-AS (negative cell line), IMR32 (positive cell line), SY5Y-D3 (positive cell line) cells were stained with VH20 at a concentration of 1 μM in 200 μL PBS for 30 minutes on ice. The cells were washed with 1 mL PBS three times and incubated with anti-Flag-PE antibody (1:200, BioLegend) for 30 minutes on ice. The cells were again washed with 1 mL PBS three times. Antibody binding was detected on a BD™ LSR II (San Jose, CA). FACS data analysis was performed using FlowJo_V10_CL.

ALK = assay: BLItz competition with KTN0239-IgG for ALK; assay type: binding; details: Protein A biosensor, KTN0239-IgG loaded, then ALK, then VH20
Source text: The ability of VH20 to compete with KTN0239 was also studied. KTN0239 is a humanized variant of KTN0125 (Sano et al. (2016) Cancer Res., 76(14 Suppl):Abstract2690) and can bind the G rich domain of ALK. A Protein A biosensor (18-5010, BLItz® system, ForteBio; Freemont, CA) was used to immobilization KTN0239-IgG. DPBS (pH=7.4) was used for the baseline and determine dissociation. The detection conditions used were (I) baseline 30 seconds; (II) loading KTN0239-IgG for 120 seconds; (III) baseline 30 seconds; (IV) association for 120 seconds with ALK; and (V) association for 120 seconds with VH20.

[8] = system: cell surface ALK on SY5Y-D3 cells; assay: FACS binding to SY5Y-D3 cells; details: 1 μM, positive cell line
Method: as §3

293T cells [9] = assay: Internalization of pHrodo Deep Red labelled VH20, 293T; assay type: cell-based; details: pHrodo Deep Red conjugated VH20, 24 hours, flow cytometer
Method: (§4) VH20 internalization was also characterized. For the internalization studies, VH20 was conjugated with pHrodo™ Deep Red dye using the pHrodo™ Deep Red Antibody Labeling Kit (Thermo). The conjugated VH20 was incubated with 293T and 293T-ALK cells for 24 hours at different concentrations. VH20 internalization was measured by a flow cytometer.

[10] = Aggregation by dynamic light scattering (DLS); assay type: physicochemical; details: 5 mg/mL in PBS, 37° C., day 0 to day 14
Method: The 4 VHs were studied by dynamic light scattering (DLS). Briefly, VH antibodies were buffer changed with PBS and filtered with a […] filter.
Antibody concentration was adjusted to 5 mg/mL. 500 μL samples were incubated at 37° C. for DLS. Samples were measured at day 0, day 1, day 4, day 7, and day 14 on Zetasizer Nano-ZS ZEN 3600 (Malvern Instruments Limited; Malvern, UK) to determine the size distributions of protein particles.

SK-N-AS cells = assay: FACS binding to SK-N-AS cells (negative cell line); details: 1 μM
Method: as §3

293T-ALK cells [11] = assay: Internalization of pHrodo Deep Red labelled VH20, 293T-ALK; assay type: cell-based; details: pHrodo Deep Red conjugated VH20, 24 hours, flow cytometer
Method: as §4

[12] = Size exclusion chromatography (SEC); assay type: physicochemical; details: Superdex 200 Increase 10/300 GL, DPBS
Method: VH20 was also studied by size exclusion chromatography (SEC). 200 μL (1 μg/mL) filtered samples were used for analysis. A Superdex® 200 Increase 10/300 GL column (GE Healthcare, Cat. No. 28990944) was used for the SEC. The column was calibrated with protein molecular mass standards of ferritin (440 kDa), aldolase (158 kDa), conalbumin (75 kDa), ovalbumin (44 kDa), carbonic anhydrase (29 kDa), and ribonuclease A (13.7 kDa). Protein was eluted by Dulbecco's phosphate-buffered saline (DPBS) buffer at a flow rate of 0.5 mL/minute.
Size exclusion chromatography (SEC) was also performed to characterize VH20-OKT3-Fc BiTE. Briefly, 200 μL (1 μg/mL) filtered samples were used for analysis. Superdex® 200 Increase 10/300 GL columns (GE Healthcare, Cat. No. 28990944) were used. The column was calibrated with protein molecular mass standards of ferritin (440 kDa), aldolase (158 kDa), conalbumin (75 kDa), ovalbumin (44 kDa), carbonic anhydrase (29 kDa), and ribonuclease A (13.7 kDa). Protein was eluted by DPBS buffer at a flow rate of 0.5 mL/minute.

T1 sequence (Q9UM73 19-1038): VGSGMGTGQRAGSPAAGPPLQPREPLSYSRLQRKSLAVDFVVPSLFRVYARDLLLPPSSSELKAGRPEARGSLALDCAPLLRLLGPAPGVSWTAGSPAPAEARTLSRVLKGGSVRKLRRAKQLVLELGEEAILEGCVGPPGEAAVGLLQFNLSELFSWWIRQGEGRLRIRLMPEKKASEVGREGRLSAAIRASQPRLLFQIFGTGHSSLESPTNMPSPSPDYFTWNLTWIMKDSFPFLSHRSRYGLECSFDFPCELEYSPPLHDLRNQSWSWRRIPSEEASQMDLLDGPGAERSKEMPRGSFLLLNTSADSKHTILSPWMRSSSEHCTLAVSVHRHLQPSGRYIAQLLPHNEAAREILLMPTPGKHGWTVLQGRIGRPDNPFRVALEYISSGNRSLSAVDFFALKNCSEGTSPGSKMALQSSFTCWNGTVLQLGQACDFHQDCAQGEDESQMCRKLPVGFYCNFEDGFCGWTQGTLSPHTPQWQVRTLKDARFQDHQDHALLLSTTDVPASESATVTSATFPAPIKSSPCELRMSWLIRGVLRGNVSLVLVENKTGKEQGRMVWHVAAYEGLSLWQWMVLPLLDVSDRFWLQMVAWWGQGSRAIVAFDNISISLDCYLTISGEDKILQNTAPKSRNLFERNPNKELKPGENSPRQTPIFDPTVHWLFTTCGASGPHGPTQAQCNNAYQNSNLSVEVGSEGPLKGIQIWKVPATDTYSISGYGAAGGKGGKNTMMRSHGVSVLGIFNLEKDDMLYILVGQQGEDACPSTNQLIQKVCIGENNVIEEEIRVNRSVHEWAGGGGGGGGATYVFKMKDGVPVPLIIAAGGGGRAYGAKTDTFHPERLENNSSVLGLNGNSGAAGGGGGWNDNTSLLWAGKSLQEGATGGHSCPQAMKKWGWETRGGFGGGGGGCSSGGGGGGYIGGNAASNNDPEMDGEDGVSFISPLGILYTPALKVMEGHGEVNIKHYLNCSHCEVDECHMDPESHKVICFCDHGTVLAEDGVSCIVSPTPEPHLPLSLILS
Sequence of cell surface ALK on neuroblastoma cells (IMR32, SY5Y-D3, SY5Y) (human) (Q9UM73 19-1620): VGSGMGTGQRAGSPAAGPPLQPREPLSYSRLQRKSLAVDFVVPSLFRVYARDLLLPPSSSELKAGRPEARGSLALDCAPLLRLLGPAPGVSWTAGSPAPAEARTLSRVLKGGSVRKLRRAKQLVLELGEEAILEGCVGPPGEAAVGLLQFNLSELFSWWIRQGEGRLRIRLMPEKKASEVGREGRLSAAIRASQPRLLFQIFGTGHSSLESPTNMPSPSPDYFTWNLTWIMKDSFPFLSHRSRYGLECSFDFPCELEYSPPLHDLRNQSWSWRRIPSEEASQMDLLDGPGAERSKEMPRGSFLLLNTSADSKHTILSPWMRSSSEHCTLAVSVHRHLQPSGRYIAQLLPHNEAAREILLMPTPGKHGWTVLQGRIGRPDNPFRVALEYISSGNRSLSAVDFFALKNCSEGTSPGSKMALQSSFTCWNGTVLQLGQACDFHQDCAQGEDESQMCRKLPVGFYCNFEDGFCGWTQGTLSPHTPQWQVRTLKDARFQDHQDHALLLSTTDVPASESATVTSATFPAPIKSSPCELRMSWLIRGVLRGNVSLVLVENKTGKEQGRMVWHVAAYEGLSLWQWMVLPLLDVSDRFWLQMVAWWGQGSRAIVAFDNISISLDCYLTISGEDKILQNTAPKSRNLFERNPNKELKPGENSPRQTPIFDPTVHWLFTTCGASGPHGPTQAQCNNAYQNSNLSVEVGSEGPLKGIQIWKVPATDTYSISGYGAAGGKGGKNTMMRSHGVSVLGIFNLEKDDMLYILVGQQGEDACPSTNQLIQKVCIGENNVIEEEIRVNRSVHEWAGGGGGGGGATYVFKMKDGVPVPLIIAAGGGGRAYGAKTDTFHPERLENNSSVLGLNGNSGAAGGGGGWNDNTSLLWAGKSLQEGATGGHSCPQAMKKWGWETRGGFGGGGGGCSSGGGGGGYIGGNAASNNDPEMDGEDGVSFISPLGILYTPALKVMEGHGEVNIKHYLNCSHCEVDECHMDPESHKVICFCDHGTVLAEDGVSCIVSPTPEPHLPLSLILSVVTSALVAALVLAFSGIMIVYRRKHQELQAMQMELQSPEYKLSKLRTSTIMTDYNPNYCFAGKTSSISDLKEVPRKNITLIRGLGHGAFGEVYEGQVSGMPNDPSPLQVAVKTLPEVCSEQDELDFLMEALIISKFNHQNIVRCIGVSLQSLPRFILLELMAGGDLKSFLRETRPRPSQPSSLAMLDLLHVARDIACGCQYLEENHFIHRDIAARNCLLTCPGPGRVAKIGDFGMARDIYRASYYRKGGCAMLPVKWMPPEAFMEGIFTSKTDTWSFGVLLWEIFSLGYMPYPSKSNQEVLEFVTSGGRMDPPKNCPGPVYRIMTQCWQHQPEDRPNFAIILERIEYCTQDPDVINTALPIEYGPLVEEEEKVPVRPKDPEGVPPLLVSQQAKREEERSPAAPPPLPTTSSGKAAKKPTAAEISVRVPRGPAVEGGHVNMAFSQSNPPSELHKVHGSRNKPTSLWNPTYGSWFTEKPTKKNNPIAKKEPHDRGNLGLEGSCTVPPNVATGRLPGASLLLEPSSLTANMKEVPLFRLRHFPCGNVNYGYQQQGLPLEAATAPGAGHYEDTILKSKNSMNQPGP
T2 sequence (Q9UM73 19-1038): as the sequence (Q9UM73 19-1038) above
T3 sequence (Q9UM73 19-1620): as the sequence (Q9UM73 19-1620) above
Sequence of cell surface ALK on SY5Y-D3 cells (Q9UM73 19-1038 limits assumed): as the sequence (Q9UM73 19-1038) above
T1 sequence (Q9UM73 733-960 limits assumed): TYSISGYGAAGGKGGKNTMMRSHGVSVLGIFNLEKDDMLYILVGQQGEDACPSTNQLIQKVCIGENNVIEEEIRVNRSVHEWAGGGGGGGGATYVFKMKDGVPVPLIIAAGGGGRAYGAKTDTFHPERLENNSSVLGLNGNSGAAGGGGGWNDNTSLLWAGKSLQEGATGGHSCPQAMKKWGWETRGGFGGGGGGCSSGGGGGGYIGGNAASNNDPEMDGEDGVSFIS

Molecule | binding with 293T-ALK cells [1] | EC50 [2] [nM] | non-specific binding with 293T cells (293T cells [3]) | cytotoxicity of anti-ALK CAR-T cells (293T-ALK cells [4]) | cytotoxicity IC50 (LDH release, activated Pan-T cells, E:T=4:1, 24 hours) [5] [nM] | cytotoxicity IC50 on IMR32 cells (LDH release, activated Pan-T cells, E:T=4:1, 24 hours) [6] [nM] | cytotoxicity IC50 on SY5Y cells (LDH release, activated Pan-T cells, E:T=4:1, 24 hours) [6] [nM] | binding cell surface ALK on IMR32 cells [7] | competition with KTN0239-IgG (ALK) | binding cell surface ALK on SY5Y-D3 cells [8] | non-specific internalization in 293T cells (293T cells [9]) | aggregation by DLS [10] | binding to SK-N-AS cells (SK-N-AS cells) | internalization into 293T-ALK cells (293T-ALK cells [11]) | oligomeric state by SEC [12]
VH78 (other, Single-domain antibody (isolated VH domain) found with the ALK G-T domain antigen) VH: EVQLVESGGGVVQPGRSLRLSCAASGFTFSSYAMHWVRQAPGKGLEWMGIIYPGDSDTRYSPSFQGHVTISRDDSTNTLYLQMNSLRAEDTATYYCARERGWQDAFDIWGQGTLVTVSS | good binding | ~1.32 | no significant non-specific binding | greater cytotoxicity | – | – | – | – | – | – | – | – | – | – | –
VH20-OKT3-Fc BiTE (bispecific antibody, part only; not given: anti-CD3 scFv, linkers and Fc, not shown: a dimerising Fc or GST) chain (part 1 of 2), part: EVQLVESGGGVVQPGRSLRLSCAASGFTFSSYAMHWVRQAPGKGLEWVAAIWYDGSNQYYADSVKGRFTISRDDSTNTLYLQMNSLRAEDTALYYCAKSSYYDSSGYYFPYGYWGQGTLVTVSS chain (part 2 of 2), part: HHHHHH | – | – | – | – | 0.01 | 0.1 | 0.15 | – | – | – | – | – | – | – | –
VH20 (other, Single-domain antibody (isolated VH domain) found by phage panning on the ALK G-rich domain antigen; For the internalization assay it was labelled with pHrodo Deep Red dye) VH: EVQLVESGGGVVQPGRSLRLSCAASGFTFSSYAMHWVRQAPGKGLEWVAAIWYDGSNQYYADSVKGRFTISRDDSTNTLYLQMNSLRAEDTALYYCAKSSYYDSSGYYFPYGYWGQGTLVTVSS | good binding | ~0.4 | no significant non-specific binding | – | – | – | – | capable of binding | not in competition | capable of binding | no non-specific internalization was detected | lower aggregation | not | effectively internalized | dimer

Source: patent publication US20250101134A1, “ANAPLASTIC LYMPHOMA KINASE ANTIBODIES AND METHODS OF USE THEREOF” (The Children's Hospital of Philadelphia, priority 2022, published 2025)
